Test results published in patent US20210275586A1.

Molecular target: CD20 antigen on CD20 positive Jeko-1 cells (human) (UniProt P11836)
Assay: flow cytometry on CD20+ Jeko-1 cells, secondary staining with anti-Biotin APC

Sequence of UniProt P11836 (P11836 whole entry): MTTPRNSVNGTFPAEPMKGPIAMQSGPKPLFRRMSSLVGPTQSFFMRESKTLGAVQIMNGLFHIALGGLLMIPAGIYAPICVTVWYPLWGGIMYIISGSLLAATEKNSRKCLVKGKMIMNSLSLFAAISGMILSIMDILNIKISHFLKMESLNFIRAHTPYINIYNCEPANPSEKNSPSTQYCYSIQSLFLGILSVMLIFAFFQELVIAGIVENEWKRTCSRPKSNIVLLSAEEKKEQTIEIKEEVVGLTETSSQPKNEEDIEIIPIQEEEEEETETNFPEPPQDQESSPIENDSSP

- lowest concentration at which binding was detected: 0.1 µg/mL
Substance: biotin-crosslinker conjugated anti-CD20 FAb (Rtx Fab MS2)
